B1: SRSF3 (protein, UniProt P84103 1-164, looked up)
Serine/arginine-rich splicing …: MHRDSCPLDCKVYVGNLGNNGNKTELERAFGYYGPLRSVWVARNPPGFAFVEFEDPRDAADAVRELDGRTLCGCRVRVELSNGEKRSRNRGPPPSWGRRPRDDYRRRSPPPRRRSPRRRSFSRSRSRSLSRDRRRERSLSRERNHKPSRSFSRSRSRSRSNERK
B2: HNRNPH3 (protein, UniProt P31942 1-346, looked up)
Heterogeneous nuclear …: MDWVMKHNGPNDASDGTVRLRGLPFGCSKEEIVQFFQGLEIVPNGITLTMDYQGRSTGEAFVQFASKEIAENALGKHKERIGHRYIEIFRSSRSEIKGFYDPPRRLLGQRPGPYDRPIGGRGGYYGAGRGSMYDRMRRGGDGYDGGYGGFDDYGGYNNYGYGNDGFDDRMRDGRGMGGHGYGGAGDASSGFHGGHFVHMRGLPFRATENDIANFFSPLNPIRVHIDIGADGRATGEADVEFVTHEDAVAAMSKDKNNMQHRYIELFLNSTPGGGSGMGGSGMGGYGRDGMDNQGGYGSVGRMGMGNNYSGGYGTPDGLGGYGRGGGGSGGYYGQGGMSGGGWRGMY
B3: SSBP1 (protein, UniProt Q04837 17-148, looked up)
Single-stranded DNA-binding …: ESETTTSLVLERSLNRVHLLGRVGQDPVLRQVEGKNPVTIFSLATNEMWRSGDSEVYQLGDVSQKTTWHRISVFRPGLRDVAYQYVKKGSRIYLEGKIDYGEYMDKNNVRRQATTIIADNIIFLSDQTKEKE
B4: SAFB: host protein, UniProt Q15424 (protein, UniProt Q15424 2-915, looked up)
Scaffold attachment factor B1: AETLSGLGDSGAAGAAALSSASSETGTRRLSDLRVIDLRAELRKRNVDSSGNKSVLMERLKKAIEDEGGNPDEIEITSEGNKKTSKRSSKGRKPEEEGVEDNGLEENSGDGQEDVETSLENLQDIDIMDISVLDEAEIDNGSVADCVEDDDADNLQESLSDSRELVEGEMKELPEQLQEHAIEDKETINNLDTSSSDFTILQEIEEPSLEPENEKILDILGETCKSEPVKEESSELEQPFAQDTSSVGPDRKLAEEEDLFDSAHPEEGDLDLASESTAHAQSSKADSLLAVVKREPAEQPGDGERTDCEPVGLEPAVEQSSAASELAEASSEELAEAPTEAPSPEARDSKEDGRKFDFDACNEVPPAPKESSTSEGADQKMSSPEDDSDTKRLSKEEKGRSSCGRNFWVSGLSSTTRATDLKNLFSKYGKVVGAKVVTNARSPGARCYGFVTMSTAEEATKCINHLHKTELHGKMISVEKAKNEPVGKKTSDKRDSDGKKEKSSNSDRSTNLKRDDKCDRKDDAKKGDDGSGEKSKDQDDQKPGPSERSRATKSGSRGTERTVVMDKSKGVPVISVKTSGSKERASKSQDRKSASREKRSVVSFDKVKEPRKSRDSESHSRVRERSEREQRMQAQWEREERERLEIARERLAFQRQRLERERMERERLERERMHVEHERRREQERIHREREELRRQQELRYEQERRPAVRRPYDLDRRDDAYWPEAKRAALDERYHSDFNRQDRFHDFDHRDRGRYPDHSVDRREGSRSMMGEREGQHYPERHGGPERHGRDSRDGWGGYGSDKRMSEGRGLPPPPRRDWGDHGRREDDRSWQGTADGGMMDRDHKRWQGGERSMSGHSGPGHMMNRGGMSGRGSFAPGGASRGHPIPHGGMQGGFGGQSRGSRPSDARFTRRY
B5: PURA (protein, UniProt Q00577 2-322, looked up)
Transcriptional activator …: ADRDSGSEQGGAALGSGGSLGHPGSGSGSGGGGGGGGGGGGSGGGGGGAPGGLQHETQELASKRVDIQNKRFYLDVKQNAKGRFLKIAEVGAGGNKSRLTLSMSVAVEFRDYLGDFIEHYAQLGPSQPPDLAQAQDEPRRALKSEFLVRENRKYYMDLKENQRGRFLRIRQTVNRGPGLGSTQGQTIALPAQGLIEFRDALAKLIDDYGVEEEPAELPEGTSLTVDNKRFFFDVGSNKYGVFMRVSEVKPTYRNSITVPYKVWAKFGHTFCKYSEEMKKIQEKQREKRAACEQLHQQQQQQQEETAAATLLLQGEEEGEED
B6: FUBP1: host protein, UniProt Q96AE4 (protein, UniProt Q96AE4 2-644, looked up)
Far upstream element-binding …: ADYSTVPPPSSGSAGGGGGGGGGGGVNDAFKDALQRARQIAAKIGGDAGTSLNSNDYGYGGQKRPLEDGDQPDAKKVAPQNDSFGTQLPPMHQQQSRSVMTEEYKVPDGMVGFIIGRGGEQISRIQQESGCKIQIAPDSGGLPERSCMLTGTPESVQSAKRLLDQIVEKGRPAPGFHHGDGPGNAVQEIMIPASKAGLVIGKGGETIKQLQERAGVKMVMIQDGPQNTGADKPLRITGDPYKVQQAKEMVLELIRDQGGFREVRNEYGSRIGGNEGIDVPIPRFAVGIVIGRNGEMIKKIQNDAGVRIQFKPDDGTTPERIAQITGPPDRCQHAAEIITDLLRSVQAGNPGGPGPGGRGRGRGQGNWNMGPPGGLQEFNFIVPTGKTGLIIGKGGETIKSISQQSGARIELQRNPPPNADPNMKLFTIRGTPQQIDYARQLIEEKIGGPVNPLGPPVPHGPHGVPGPHGPPGPPGPGTPMGPYNPAPYNPGPPGPAPHGPPAPYAPQGWGNAYPHWQQQAPPDPAKAGTDPNSAAWAAYYAHYYQQQAQPPPAAPAGAPTTTQTNGQGDQQNPAPAGQVDYTKAWEEYYKKMGQAVPAPTGAPPGGQPDYSAAWAEYYRQQAAYYAQTSPQGMPQHPPAPQGQ
B7: ILF3: host protein, UniProt Q12906 (protein, UniProt Q12906 1-894, looked up)
Interleukin enhancer-binding …: MRPMRIFVNDDRHVMAKHSSVYPTQEELEAVQNMVSHTERALKAVSDWIDEQEKGSSEQAESDNMDVPPEDDSKEGAGEQKTEHMTRTLRGVMRVGLVAKGLLLKGDLDLELVLLCKEKPTTALLDKVADNLAIQLAAVTEDKYEILQSVDDAAIVIKNTKEPPLSLTIHLTSPVVREEMEKVLAGETLSVNDPPDVLDRQKCLAALASLRHAKWFQARANGLKSCVIVIRVLRDLCTRVPTWGPLRGWPLELLCEKSIGTANRPMGAGEALRRVLECLASGIVMPDGSGIYDPCEKEATDAIGHLDRQQREDITQSAQHALRLAAFGQLHKVLGMDPLPSKMPKKPKNENPVDYTVQIPPSTTYAITPMKRPMEEDGEEKSPSKKKKKIQKKEEKAEPPQAMNALMRLNQLKPGLQYKLVSQTGPVHAPIFTMSVEVDGNSFEASGPSKKTAKLHVAVKVLQDMGLPTGAEGRDSSKGEDSAEETEAKPAVVAPAPVVEAVSTPSAAFPSDATAEQGPILTKHGKNPVMELNEKRRGLKYELISETGGSHDKRFVMEVEVDGQKFQGAGSNKKVAKAYAALAALEKLFPDTPLALDANKKKRAPVPVRGGPKFAAKPHNPGFGMGGPMHNEVPPPPNLRGRGRGGSIRGRGRGRGFGGANHGGYMNAGAGYGSYGYGGNSATAGYSQFYSNGGHSGNASGGGGGGGGGSSGYGSYYQGDNYNSPVPPKHAGKKQPHGGQQKPSYGSGYQSHQGQQQSYNQSPYSNYGPPQGKQKGYNHGQGSYSYSNSYNSPGGGGGSDYNYESKFNYSGSGGRSGGNSYGSGGASYNPGSHGGYGGGSGGGSSYQGKQGGYSQSNYNSPGSGQNYSGPPSSYQSSQGGYGRNADHSMNYQYR

system: HCoV-OC43 gRNA and sgRNA; type: binding; settings: not given

Molecule	background (unweighted spectral count, no-probe control)	target (unweighted spectral count)	target (unweighted spectral count, OC43 Probe II capture)	target (unweighted spectral count, OC43 Probe II)
B1	3	6	18	16

same assay, conditions: 36 hpi; type n_36_v; tested against no-probe control; FDR<10%

Molecule	target (unweighted spectral count, OC43 Probe II capture)
B2	18
B3	12
B4	7
B5	5
B6	17
B7	31

same assay, conditions: OC43 Probe II, 12 hpi (type n_12_v), infected cells; tested against no-probe control

Molecule	target (unweighted spectral count)
B2	6
B3	44
B6	6
B7	7

same assay, conditions: OC43 Probe II, 24 hpi (type n_24_v), infected cells; tested against no-probe control

Molecule	target (unweighted spectral count)
B2	15
B3	25
B6	12
B7	14

same assay, conditions: type n_48_v; 48 hpi; OC43 Probe II capture on infected cells

Molecule	target (unweighted spectral count, OC43 Probe II)
B2	21
B3	14
B4	9
B5	12
B6	21
B7	36

same assay, conditions: type n_48_v; 48 hpi; no-probe control on infected cells

Molecule	background (unweighted spectral count, no-probe control)
B2	2
B3	3
B4	1
B5	1
B6	2
B7	2

same assay, conditions: type s_36_m; HCoV-OC43-infected HCT-8 cells, 36 hpi, Probe II

Molecule	target (spectral count)
B4	7
B6	17
B7	31

same assay, conditions: type s_36_m; uninfected-probe control, 36 hpi, Probe II

Molecule	background (spectral count)
B4	1
B6	1
B7	3

system: gRNA of HCoV-OC43; type: binding; settings: not given

Molecule	background (spectral count, no-probe control)	target (spectral count, OC43 Probe I RNP capture)
B1	3	14

same assay, conditions: type g_36_m; HCoV-OC43-infected HCT-8 cells, 36 hpi, Probe I

Molecule	target (spectral count)
B6	15
B7	39

same assay, conditions: type g_36_m; uninfected-probe control, 36 hpi, Probe I

Molecule	background (spectral count)
B6	2
B7	3

same assay, conditions: type n_48_v: 48 hours post-infection, infected cells, OC43 Probe I; unweighted spectral count

Molecule	target (spectral count, OC43 Probe I RNP capture)
B2	16
B3	16
B4	11
B5	7
B7	38

same assay, conditions: type n_48_v: 48 hours post-infection, no-probe control on infected cells

Molecule	background (spectral count, no-probe control)
B2	2
B3	3
B4	1
B5	1
B6	2
B7	2

system: SARS-CoV-2 gRNA; type: binding; settings: […]; LC-MS/MS; Probe I sample (first 199 lines of Table 2)

Molecule	target (unweighted spectral count of the protein in the RNP capture)
B2	23
B3	14
B1	16
B4	20
B5	15
B6	32
B7	15

system: SARS-CoV-2 gRNA and sgRNAs; type: binding; settings: Probe II capture; […]; LC-MS/MS LFQ

Molecule	target (unweighted spectral count in RNP capture)
B2	17
B3	7
B1	20
B4	11
B5	19
B6	21
B7	15

same assay, conditions: no-probe control pull-down, used as background for Probe II

Molecule	background (unweighted spectral count in control)
B2	1
B3	1
B1	1
B4	1
B5	1
B6	1
B7	1

Source: US20230407373A1 (priority 2020, published 2023)
